From the MegaScale stability set (Tsuboyama et al. 2023)

B1: r4_43_TrROS_Hall (parent)
chain: DLVTIKVPLENLEEIKKAAEKAGFKIVSISYDKENKEVTIVIEKKK

Variants of: B1
Test: folding stability dG (cDNA display proteolysis); higher = more stable
Details: PBS, room temperature

Folding stability dG [kcal/mol]: each site, then its substitutions
P8: C 3.58, N 3.58, K 3.71, H 4.12, E 3.19, S 3.49, V 3.72, G 3.77, R 3.27, A 3.6, Y 3.62, F 3.75, W 3.7, T 3.68, L 3.95, D 3.39, Q 3.53, M 3.81, I 3.5
I5: R 3.1, L 4.01, T 3.42, D 2.34, G 1.98, M 3.79, N 2.61, K 3.27, Y 4.42, V 3.79, C 3.01, S 2.9, Q 3.15, F 4.32, P 1.48, A 3.14, H 3.23, E 2.86, W 4.23
N11: A 3.83, C 3
T4: H 3.64, R 3.52, S 3.78, N 3.45, A 3.92, P 3.02, I 3.54, V 3.48, M 3.65, G 3.14, W 3.88, C 3.44, Q 3.38, E 3.5, Y 4.13, K 3.56, L 3.46, D 2.98, F 3.68
K6: D 2.82, V 3.5, S 3.52, R 3.84, W 3.39, F 3.62, N 3.37, I 3.75, M 3.31, Y 3.48, T 3.77, G 2.98, A 3.51, C 3.32, E 2.83, Q 3.04, P 2.42, H 3.71, L 3.31
V3: E 3.1, A 3.33, H 3.69, C 3.72, M 3.66, N 3.25, G 3.13, F 4.06, Q 3.65, D 3.18, W 4.34, I 3.36, K 3.45, L 3.62, T 3.66, R 3.4, P 2.93, S 3.62, Y 4.03
L9: V 3.6, P 3.53, E 3.46, H 3.57, N 3.58, T 3.46, Q 3.49, K 3.66, M 3.53, F 3.69, R 3.59, Y 3.39, W 3.92, I 3.61, D 3.42, A 3.66, S 3.47, G 3.08
E10: G 3.58, Q 3.52, A 3.8, M 4.03, H 3.41, R 3.72, V 3.68, S 3.85, K 3.61, N 4.02, I 3.86, L 3.59, D 3.29, C 3.35, W 3.79, T 3.75, P 3.48, F 3.75, Y 3.77
L2: Q 3.85, K 3.52, N 3.23, H 3.43, G 3.42, Y 4.08, W 3.78, V 3.91, M 3.66, P 3.23, S 3.39, T 3.93, I 3.13, R 3.58
V7: K 3.01, M 3.63, W 3.44, Q 3.04, H 3.12, A 3.81, C 3.66, N 2.53, S 3.71, R 3.3, I 3.6, E 2.93, D 1.97, G 3.46, L 3.51, T 3.57, F 3.46, Y 3.24, P 2.19
